Data on 8 substances can be found in US20030219441A1.

In experiment [1] the target is Recombinant human truncated Tissue Factor (tTF) (human) (UniProt P13726). The experiment in a line: cell-based or functional assay.
The target in experiment [2] is I-A^d MHC Class II antigen on A20 cells (mouse) (UniProt P04228). The experiment in a line: 125I-labelled Fab' binding to A20 cells.
Experiment [3] shares this target. Put plainly: method not given.
The target of experiment [4] is Recombinant human truncated Tissue Factor (tTF) (human) (UniProt P13726). Put plainly: 125I-tTF (in molar excess) tethered to A20 cells (I-A^d) through the bispecific antibody, at saturation.

Sequence of UniProt P13726 (P13726 33-251): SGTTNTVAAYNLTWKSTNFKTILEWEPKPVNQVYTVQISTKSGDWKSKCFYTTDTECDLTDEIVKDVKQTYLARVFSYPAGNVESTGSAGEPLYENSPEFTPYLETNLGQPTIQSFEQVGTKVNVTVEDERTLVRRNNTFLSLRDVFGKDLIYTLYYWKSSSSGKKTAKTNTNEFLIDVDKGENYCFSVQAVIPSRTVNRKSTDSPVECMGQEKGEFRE
Sequence of UniProt P04228 (P04228 24-256, chain 1 of 2): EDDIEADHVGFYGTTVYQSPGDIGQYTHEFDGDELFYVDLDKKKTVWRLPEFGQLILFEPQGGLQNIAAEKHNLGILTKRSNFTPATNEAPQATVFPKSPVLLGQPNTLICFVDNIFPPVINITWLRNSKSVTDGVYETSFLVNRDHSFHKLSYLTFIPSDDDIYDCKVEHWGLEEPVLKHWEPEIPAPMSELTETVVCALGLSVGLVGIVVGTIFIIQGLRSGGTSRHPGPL
Sequence of UniProt P04228 (P01921 28-265, chain 2 of 2, further chain): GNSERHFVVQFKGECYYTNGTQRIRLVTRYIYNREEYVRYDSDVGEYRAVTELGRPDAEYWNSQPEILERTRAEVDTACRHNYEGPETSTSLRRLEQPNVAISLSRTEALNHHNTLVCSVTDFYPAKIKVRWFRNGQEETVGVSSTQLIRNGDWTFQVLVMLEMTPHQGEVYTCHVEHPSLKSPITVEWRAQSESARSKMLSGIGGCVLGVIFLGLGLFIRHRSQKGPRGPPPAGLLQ

On to 10H10 F(ab')2, for which, in experiment [1], the Coagulation time (sec) of mouse plasma added to A20 cells incubated with the reagents was 160 s.
In the case of 10H10 Fab', the Coagulation time (sec) of mouse plasma added to A20 cells incubated with the reagents in experiment [1] came to 162 s.
As for B21-2 F(ab')2, the Coagulation time (sec) of mouse plasma added to A20 cells incubated with the reagents in experiment [1] is 168 s.
Take B21-2 Fab′: the Coagulation time (sec) of mouse plasma added to A20 cells incubated with the reagents in experiment [1] came to 165 s. Besides, the concentration at which saturation of binding is reached in experiment [2] stood at 21.5 nM.
B21-2 antibody: the fold better affinity than M5/114 in experiment [3] was 10 fold.
As for B21-2/10H10 bispecific antibody, in experiment [1], the Coagulation time (sec) of mouse plasma added to A20 cells incubated with the reagents stood at 36 s; the coagulation time of mouse plasma, A20 cells incubated with 21.5 nM bispecific antibody and 69 nM tTF was 60 s. Also, the molecules of tTF bound per A20 cell (molecules per cell) in experiment [4] amounted to 310000.
For the substance B21-2/OX7 bispecific antibody, in experiment [1], the Coagulation time (sec) of mouse plasma added to A20 cells incubated with the reagents is 165 s; the coagulation time of mouse plasma, A20 cells incubated with 21.5 nM bispecific antibody and 69 nM tTF came out at 140 s.
Regarding SFR8/10H10 bispecific antibody, in experiment [1], the Coagulation time (sec) of mouse plasma added to A20 cells incubated with the reagents is 154 s; the coagulation time of mouse plasma, A20 cells incubated with 21.5 nM bispecific antibody and 69 nM tTF came to 140 s.
